From patent publication US20210030857A1 (NGM BIOPHARMACEUTICALS, published 2021)

Experiments:
[1] = molecular target: T1, human beta klotho / human FGFR1c receptor complex on cells (human, UniProt Q86Z14 1-1044; P11362 22-822); assay: cell-based or functional assay
[2] = molecular target: T2, human beta klotho protein (soluble, used in Biacore) (human, UniProt Q86Z14 53-997, limits assumed); assay: Biacore SPR (as in Example 2)
T2 construct: also called HuKLB; huKLB
T2 sequence: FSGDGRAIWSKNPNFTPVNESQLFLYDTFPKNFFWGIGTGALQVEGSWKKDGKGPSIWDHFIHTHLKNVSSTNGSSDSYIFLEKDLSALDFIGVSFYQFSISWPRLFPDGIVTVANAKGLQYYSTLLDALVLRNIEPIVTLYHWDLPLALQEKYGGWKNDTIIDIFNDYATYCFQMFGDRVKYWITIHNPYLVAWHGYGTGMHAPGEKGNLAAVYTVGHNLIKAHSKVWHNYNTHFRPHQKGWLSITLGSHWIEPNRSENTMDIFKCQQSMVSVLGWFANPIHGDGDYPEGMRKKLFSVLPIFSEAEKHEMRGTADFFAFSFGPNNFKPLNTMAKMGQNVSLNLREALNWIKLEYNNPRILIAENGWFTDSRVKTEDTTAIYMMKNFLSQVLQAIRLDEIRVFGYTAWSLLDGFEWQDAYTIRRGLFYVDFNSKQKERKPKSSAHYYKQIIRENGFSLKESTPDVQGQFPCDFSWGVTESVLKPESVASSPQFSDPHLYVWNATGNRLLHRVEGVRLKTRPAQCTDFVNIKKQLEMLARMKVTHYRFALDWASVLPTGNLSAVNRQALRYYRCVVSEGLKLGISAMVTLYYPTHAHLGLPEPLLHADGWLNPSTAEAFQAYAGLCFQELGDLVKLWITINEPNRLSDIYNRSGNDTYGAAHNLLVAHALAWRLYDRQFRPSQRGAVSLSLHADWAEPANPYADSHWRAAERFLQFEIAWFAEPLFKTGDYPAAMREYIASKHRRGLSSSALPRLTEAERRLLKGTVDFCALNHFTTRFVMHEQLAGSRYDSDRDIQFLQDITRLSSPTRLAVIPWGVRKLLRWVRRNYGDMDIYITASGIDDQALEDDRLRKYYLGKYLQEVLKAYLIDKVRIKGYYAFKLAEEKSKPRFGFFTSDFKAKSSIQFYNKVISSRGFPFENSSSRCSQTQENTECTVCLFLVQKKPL

[3] = molecular target: T3, cynomolgus monkey beta klotho protein (soluble, used in Biacore) (cynomolgus monkey (Macaca fascicularis), UniProt Q86Z14 53-996 (human entry), limits assumed); assay: Biacore SPR (as in Example 2)
T3 construct: Protein in solution; also called Cyno KLB; cyKLB
T3 chain: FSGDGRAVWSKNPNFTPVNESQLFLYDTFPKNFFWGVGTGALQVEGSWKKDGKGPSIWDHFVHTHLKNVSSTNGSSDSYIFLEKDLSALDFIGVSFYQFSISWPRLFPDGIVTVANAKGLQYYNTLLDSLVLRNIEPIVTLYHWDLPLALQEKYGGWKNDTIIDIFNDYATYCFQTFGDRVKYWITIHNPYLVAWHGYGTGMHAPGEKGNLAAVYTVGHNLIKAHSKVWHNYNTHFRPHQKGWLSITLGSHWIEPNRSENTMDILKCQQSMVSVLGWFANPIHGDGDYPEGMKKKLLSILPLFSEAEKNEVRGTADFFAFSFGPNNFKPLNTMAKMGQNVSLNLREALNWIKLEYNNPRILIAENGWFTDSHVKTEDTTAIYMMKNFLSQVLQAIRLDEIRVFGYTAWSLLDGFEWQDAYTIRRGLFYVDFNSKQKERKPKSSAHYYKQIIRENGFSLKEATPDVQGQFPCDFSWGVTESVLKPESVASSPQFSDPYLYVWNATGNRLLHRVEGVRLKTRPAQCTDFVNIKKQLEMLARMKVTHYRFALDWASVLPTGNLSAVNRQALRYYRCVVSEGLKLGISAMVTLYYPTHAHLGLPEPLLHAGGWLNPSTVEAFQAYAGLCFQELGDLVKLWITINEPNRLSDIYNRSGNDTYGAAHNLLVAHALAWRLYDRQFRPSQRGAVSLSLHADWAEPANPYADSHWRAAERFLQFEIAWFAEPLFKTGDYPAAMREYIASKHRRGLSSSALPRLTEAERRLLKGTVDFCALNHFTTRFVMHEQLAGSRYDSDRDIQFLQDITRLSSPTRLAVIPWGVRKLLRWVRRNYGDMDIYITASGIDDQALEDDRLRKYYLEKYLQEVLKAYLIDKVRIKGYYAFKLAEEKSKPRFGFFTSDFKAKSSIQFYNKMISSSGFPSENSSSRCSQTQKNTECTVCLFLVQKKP

[4] = molecular target: T1, human beta klotho / human FGFR1c …; assay: cell-based or functional assay; remark: listed apart in the source
[5] = molecular target: cynomolgus beta klotho / human FGFR1c receptor complex on cells (cynomolgus monkey (Macaca …)); assay: cell-based or functional assay
[6] = molecular target: T1, human beta klotho / human FGFR1c …; assay: cell-based or functional assay; remark: listed apart in the source
[7] = molecular target: T4, human beta klotho expressed on cells (human, UniProt Q86Z14 1-1044); assay: FACS competition on HuKLB-overexpressing cells; row antibody unlabelled; competitor 3I13-Alexa488 (labelled, EC10); MFI of the label
T4 construct: also called HuKLB overexpressing cells; Human KLB
T4 sequence: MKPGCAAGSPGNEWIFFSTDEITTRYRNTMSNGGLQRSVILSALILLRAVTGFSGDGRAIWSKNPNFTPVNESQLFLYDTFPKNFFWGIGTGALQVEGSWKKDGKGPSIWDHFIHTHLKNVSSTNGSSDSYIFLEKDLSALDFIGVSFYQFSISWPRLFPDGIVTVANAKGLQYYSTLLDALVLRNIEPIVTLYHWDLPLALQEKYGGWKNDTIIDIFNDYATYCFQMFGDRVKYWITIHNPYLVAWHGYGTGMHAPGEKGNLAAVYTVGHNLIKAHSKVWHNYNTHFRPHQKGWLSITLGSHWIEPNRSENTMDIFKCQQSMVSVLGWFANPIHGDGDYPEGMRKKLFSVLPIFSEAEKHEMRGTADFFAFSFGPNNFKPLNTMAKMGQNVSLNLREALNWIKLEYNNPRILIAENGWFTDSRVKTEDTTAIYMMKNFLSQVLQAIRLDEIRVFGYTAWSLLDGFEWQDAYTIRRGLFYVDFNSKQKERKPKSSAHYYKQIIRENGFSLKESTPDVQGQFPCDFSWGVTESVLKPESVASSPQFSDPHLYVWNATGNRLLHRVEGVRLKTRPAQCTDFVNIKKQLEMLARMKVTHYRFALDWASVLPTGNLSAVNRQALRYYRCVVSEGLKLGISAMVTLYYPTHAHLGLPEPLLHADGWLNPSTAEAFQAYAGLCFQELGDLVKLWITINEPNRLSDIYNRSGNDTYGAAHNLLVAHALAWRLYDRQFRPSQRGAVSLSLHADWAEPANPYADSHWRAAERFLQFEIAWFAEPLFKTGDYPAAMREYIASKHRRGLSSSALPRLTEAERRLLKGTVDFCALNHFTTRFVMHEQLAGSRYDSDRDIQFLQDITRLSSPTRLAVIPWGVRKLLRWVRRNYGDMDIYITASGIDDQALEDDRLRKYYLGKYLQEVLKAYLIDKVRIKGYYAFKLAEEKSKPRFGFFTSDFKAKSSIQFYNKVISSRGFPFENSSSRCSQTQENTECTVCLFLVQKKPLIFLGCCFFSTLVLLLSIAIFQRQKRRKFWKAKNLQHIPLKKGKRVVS
Description: (§1) For example, for competition binding assays by FACS analysis, antibody standards were prepared that were conjugated to a fluorochrome using either A488 or A647 antibody labeling kit (Invitrogen) following manufacturer's instructions. A dose titration of the conjugated antibody standard was evaluated using HuKLB overexpressing cells. The plateau of the maximal signal of antibody binding is EC=100 and the background signal is EC=0. Competition by FACS against the fluorochrome labeled antibody was performed by pre-incubating HuKLB overexpressing cells with hybridoma supernatants for 15 minutes at room temperature. Without washing, an EC=10 concentration of A488 or A647 labelled antibody standard was added. EC=10 for an individual antibody was determined by 10% of signal using the maximum signal as (100%) and background signal as (0%). After 30 minutes at 4° C., cells are washed and analyzed by FACS. […] A partial competing antibody is one sample that show signal between labelled antibody alone and background. Antibodies that show complete competition against the same standard antibody are considered to be in the same bin.
(§2) Representative results are shown in Table 12 below reported as mean fluorescence intensity (MFI).

[8] = molecular target: T4, human beta klotho expressed on cells; assay: FACS competition on HuKLB-overexpressing cells; row antibody unlabelled; competitor 5H23-Alexa647 (labelled, EC10); MFI of the label
Description: as §1, §2

Sequence of cynomolgus beta klotho / human FGFR1c receptor complex on cells (cynomolgus monkey (Macaca …)) (chain, as listed by the source limits assumed, chain 1 of 2): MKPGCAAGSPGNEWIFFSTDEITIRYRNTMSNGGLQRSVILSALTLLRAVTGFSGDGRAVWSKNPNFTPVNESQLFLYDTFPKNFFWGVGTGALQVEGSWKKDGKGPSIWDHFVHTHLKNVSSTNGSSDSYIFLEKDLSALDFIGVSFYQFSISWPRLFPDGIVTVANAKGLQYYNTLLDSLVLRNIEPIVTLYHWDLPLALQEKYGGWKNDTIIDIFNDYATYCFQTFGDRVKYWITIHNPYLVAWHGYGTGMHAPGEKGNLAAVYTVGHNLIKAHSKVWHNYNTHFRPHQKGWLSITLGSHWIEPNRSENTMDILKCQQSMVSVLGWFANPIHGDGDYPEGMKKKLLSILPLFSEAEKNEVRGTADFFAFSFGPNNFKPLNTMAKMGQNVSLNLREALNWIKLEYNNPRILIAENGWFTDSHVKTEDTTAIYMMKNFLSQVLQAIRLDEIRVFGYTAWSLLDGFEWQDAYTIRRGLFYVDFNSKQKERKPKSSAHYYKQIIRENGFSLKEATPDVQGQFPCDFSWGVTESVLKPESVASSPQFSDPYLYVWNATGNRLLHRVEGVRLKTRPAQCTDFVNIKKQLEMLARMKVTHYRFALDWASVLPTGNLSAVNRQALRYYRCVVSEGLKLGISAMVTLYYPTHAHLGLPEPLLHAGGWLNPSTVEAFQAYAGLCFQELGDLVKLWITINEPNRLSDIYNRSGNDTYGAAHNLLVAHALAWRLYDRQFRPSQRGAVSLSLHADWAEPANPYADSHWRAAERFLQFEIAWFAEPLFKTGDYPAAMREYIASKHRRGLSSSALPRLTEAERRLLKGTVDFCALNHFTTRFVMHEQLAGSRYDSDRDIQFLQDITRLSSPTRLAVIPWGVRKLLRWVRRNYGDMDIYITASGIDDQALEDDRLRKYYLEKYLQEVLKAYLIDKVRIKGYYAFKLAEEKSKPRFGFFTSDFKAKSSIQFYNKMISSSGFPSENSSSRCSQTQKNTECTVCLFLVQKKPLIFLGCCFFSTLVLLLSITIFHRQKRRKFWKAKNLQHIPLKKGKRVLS
Sequence of cynomolgus beta klotho / human FGFR1c receptor complex on cells (cynomolgus monkey (Macaca …)) (chain, as listed by the source limits assumed, chain 2 of 2): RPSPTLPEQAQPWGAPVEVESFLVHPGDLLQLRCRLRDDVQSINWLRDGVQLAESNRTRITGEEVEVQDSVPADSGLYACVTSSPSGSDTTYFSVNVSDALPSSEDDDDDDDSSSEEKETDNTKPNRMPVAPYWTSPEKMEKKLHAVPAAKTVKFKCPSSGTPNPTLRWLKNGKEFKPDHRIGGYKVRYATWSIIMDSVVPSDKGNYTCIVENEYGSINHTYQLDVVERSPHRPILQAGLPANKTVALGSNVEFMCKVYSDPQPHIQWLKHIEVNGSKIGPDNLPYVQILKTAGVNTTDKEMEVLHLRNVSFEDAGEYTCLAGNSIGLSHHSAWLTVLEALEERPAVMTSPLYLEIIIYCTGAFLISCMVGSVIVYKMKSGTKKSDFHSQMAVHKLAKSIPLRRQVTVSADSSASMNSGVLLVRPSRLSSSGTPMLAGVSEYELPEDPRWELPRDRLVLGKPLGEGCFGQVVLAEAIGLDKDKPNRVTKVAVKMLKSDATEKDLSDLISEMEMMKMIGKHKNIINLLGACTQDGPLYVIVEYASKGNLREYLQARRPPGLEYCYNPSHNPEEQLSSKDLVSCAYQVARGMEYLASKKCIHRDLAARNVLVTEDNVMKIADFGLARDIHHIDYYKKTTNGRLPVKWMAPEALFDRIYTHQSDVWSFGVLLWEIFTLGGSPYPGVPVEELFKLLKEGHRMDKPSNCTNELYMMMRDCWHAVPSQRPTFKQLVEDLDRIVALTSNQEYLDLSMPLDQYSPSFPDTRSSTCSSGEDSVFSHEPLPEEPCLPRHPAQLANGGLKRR

B1: humanized 5H23 antibody vH3-vL2 (antibody, human IgG1, kappa, V domains shown)
VH: QVQLQQSGAEVKKPGASVKVSCKASGYTFTSYDINWVRQAPGQGLEWIGWIYPGDGSTKYNEKFKGKATITRDTSASTAYMELSSLRSEDTAVYFCARSDYYGSRSFAYWGQGTLVTVSS
VL: DIVMTQSPDSLAVSLGERATINCRASKSVSTSGYVYMHWYQQKPGQPPKLLIYLASYLESGVPDRFSGSGSGTDFTLTISSVQAEDVAVYYCQHSRDLTFPFGGGTKLEIKR
notes: Probably the same antibody as m13; also called vH3 (vL2 group)
EC50-adipocyte [1]: 5.5 nM | EC50 reporter assay [1]: 0.68 nM | Kd [2]: 0.23 nM | Kd [3]: 0.59 nM

B2: antibody 1G19 (antibody, V domains shown)
VH: QVQLQESGPGLVKPSQSLSLTCSVTGYSITSGYYWNWIRQFPGNKLEWMGYINYGGSNNYNPSLKNRISITRDTSKNQFFLKLTSVTTEDTATYYCARRGAYYSNYDSFDVWGTGTTVTVSS
VL: DIKMTQSPSSMYASLGERVTITCKASQDINSYLSWFQQKPGKSPKTLIYRANRLVDGVPSRFSGSGSGQDYSLTISSLEYEEMGIYYCLQYDEFPYTFGGGTKLEIK
notes: Murine monoclonal antibody
HEK293 huKLB/R1c reporter assay EC50, Experiment - A [4]: 0.231 nM | HEK293 huKLB/R1c reporter assay EC50, Experiment - B [4]: 0.127 nM | HEK293 cynoKLB/R1c reporter assay EC50, Experiment - A [5]: 2.35 nM | HEK293 cynoKLB/R1c reporter assay EC50, Experiment - B [5]: 2.45 nM | hAdip pERK assay EC50, Experiment - B [6]: 1.3 nM | Mean Florescence Intensity (MFI) [7]: 29 MFI | Mean Florescence Intensity (MFI) [8]: 2.2 MFI
